We go through six substances from patent US20100291677A1.

Holding throughout (test): cell-based or functional assay
For test [1], the target named is MCP1 (monocyte chemoattractant protein-1) protein (human) (UniProt P13500).
Test [2] addresses TSP1 (thrombospondin-1) protein (human) (UniProt P07996).
Test [3] concerns the target IL-13Ra2 (interleukin 13 alpha 2 receptor) protein (human) (UniProt Q14627).
Test [4] addresses FSTL1 (Follistatin-like 1) protein (human) (UniProt Q12841).
The next test has as its target IL-10 protein (UniProt P22301).
The next test has as its target TGF-beta (UniProt P01137).
UniProt P01137, sequence (P01137 279-390 limits assumed): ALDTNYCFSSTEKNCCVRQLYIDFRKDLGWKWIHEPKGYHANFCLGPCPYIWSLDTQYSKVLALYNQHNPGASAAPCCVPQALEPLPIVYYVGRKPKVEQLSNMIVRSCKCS

UniProt P22301, sequence (P22301 19-178 limits assumed): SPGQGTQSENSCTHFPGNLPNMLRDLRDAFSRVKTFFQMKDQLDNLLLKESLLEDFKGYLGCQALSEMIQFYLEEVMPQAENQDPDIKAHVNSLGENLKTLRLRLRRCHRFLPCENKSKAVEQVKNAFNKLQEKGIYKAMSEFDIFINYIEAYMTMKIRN
UniProt Q14627, sequence (Q14627 27-380 limits assumed): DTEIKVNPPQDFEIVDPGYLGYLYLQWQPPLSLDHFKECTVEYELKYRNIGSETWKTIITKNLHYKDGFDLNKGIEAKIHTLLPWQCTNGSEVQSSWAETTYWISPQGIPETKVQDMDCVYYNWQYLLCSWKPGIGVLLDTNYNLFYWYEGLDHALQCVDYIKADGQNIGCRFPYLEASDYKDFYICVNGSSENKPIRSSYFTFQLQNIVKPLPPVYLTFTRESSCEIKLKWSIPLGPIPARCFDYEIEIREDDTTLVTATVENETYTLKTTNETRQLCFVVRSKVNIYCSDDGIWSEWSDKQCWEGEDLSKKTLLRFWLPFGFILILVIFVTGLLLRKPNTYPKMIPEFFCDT
UniProt P13500, sequence (P13500 24-99 limits assumed): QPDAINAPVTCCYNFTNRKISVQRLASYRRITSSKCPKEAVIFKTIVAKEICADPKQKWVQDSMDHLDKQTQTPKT
UniProt P07996, sequence (P07996 19-1170 limits assumed): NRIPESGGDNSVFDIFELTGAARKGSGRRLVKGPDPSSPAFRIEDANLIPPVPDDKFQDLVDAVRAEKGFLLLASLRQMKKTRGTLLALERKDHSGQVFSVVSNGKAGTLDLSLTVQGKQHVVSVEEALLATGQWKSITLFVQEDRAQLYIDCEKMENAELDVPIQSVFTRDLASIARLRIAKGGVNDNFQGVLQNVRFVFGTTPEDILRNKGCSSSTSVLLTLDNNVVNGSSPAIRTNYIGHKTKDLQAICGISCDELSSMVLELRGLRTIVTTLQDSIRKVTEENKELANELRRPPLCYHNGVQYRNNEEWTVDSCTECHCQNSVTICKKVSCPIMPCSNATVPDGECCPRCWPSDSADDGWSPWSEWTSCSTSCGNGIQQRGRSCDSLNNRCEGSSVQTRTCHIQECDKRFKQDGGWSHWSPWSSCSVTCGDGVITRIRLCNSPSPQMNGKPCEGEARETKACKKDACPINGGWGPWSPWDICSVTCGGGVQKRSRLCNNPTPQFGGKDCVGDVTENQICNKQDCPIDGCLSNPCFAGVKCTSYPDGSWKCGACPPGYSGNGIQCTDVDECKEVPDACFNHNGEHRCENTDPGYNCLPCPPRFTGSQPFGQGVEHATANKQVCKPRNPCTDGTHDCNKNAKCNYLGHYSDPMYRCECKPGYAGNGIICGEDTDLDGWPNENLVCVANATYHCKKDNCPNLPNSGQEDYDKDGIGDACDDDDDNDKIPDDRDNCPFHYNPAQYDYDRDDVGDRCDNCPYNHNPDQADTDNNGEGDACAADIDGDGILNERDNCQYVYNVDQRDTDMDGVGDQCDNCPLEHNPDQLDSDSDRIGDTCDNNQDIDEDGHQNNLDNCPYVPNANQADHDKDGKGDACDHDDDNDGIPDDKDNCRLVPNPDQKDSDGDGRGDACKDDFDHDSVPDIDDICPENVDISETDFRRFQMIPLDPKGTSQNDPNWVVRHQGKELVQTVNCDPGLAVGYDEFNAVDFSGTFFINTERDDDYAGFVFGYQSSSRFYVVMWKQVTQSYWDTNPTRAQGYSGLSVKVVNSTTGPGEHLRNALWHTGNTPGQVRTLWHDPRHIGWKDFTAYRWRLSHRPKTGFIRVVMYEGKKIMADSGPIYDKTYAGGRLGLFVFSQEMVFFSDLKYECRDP
UniProt Q12841, sequence (Q12841 21-308 limits assumed): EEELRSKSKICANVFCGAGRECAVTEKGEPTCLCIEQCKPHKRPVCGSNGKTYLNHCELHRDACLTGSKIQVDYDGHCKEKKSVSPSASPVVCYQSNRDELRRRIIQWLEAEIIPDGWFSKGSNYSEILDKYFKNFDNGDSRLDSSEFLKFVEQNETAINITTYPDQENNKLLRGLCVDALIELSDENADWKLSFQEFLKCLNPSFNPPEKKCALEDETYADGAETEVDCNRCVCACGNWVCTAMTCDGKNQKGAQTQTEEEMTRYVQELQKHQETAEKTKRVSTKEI

In test [1], “anti-MCP1 antibody (BD PharMingen #551226)” gave a FoxP3 protein expression in CD8+ cells, F3 cells (FIG. 13) of 12; a decrease in cellular infiltration capability of F3 cells (matrigel Transwell, antibody at 1 ug/ml) of 45%; an expression level of FoxP3 protein in CD4+ cells, F3 clone with antibody (FIG. 6; 35.34 without) of 16.3; an expression level of FoxP3 protein in CD4+ cells, F3 clone with antibody (FIG. 7; 38.39 without) of 22.9. In test [1], the expression level of FoxP3 protein in CD4+CD25+ cells, F3 clone with antibody was found to be 22.1; the expression level of FoxP3 protein in CD4+CD25- cells, F3 clone with antibody amounted to 19; the expression of FoxP3 protein enhanced by the culture supernatant of B11 clone (FIG. 8) was found to be 4.69.

In test [2], anti-TSP1 antibody (ABCAM #ab3131) returned a FoxP3 protein expression in CD8+ cells, F3 cells (FIG. 13) of 5.28; an expression level of FoxP3 protein in CD4+ cells, F3 clone with antibody (FIG. 6; 35.34 without) of 9.26; an expression level of FoxP3 protein in CD4+ cells, F3 clone with antibody (FIG. 7; 38.39 without) of 21.4; an expression level of FoxP3 protein in CD4+CD25+ cells, F3 clone with antibody of 27.8. Moreover, the expression level of FoxP3 protein in CD4+CD25- cells, F3 clone with antibody in test [2] is 16.6.

As for anti-IL-13Ra2 antibody (R&D #AF146), in test [3], the FoxP3 protein expression in CD8+ cells, B11 cells (FIG. 14) is 10.2; the expression level of FoxP3 protein in CD4+ cells, F3 clone with antibody (FIG. 6) was determined as 11.9; the expression of FoxP3 protein enhanced by the culture supernatant of B11 clone (FIG. 8; 23.69 without antibody) was 7.6.

In test [4], anti-FSTL1 antibody (R&D #MAB1694) showed a decrease in cellular infiltration capability of F3 cells (matrigel Transwell, antibody at 1 ug/ml) of 45%; an expression level of FoxP3 protein in CD4+ cells, F3 clone with antibody (FIG. 6; 35.34 without) of 14.9; an expression level of FoxP3 protein in CD4+ cells, F3 clone with antibody (FIG. 7; 38.39 without) of 34.7; an expression level of FoxP3 protein in CD4+CD25+ cells, F3 clone with antibody of 29.9. In test [4], this substance returned an expression level of FoxP3 protein in CD4+CD25- cells, F3 clone with antibody of 32.6.

For anti-IL-10 antibody (R&D #MAB2171), in the test with IL-10 protein, the expression level of FoxP3 protein in CD4+ cells, F3 clone with antibody (FIG. 6) was 11.4; the expression level of FoxP3 protein in CD4+ cells, F3 clone with antibody (FIG. 7) amounted to 30.9; the expression level of FoxP3 protein in CD4+CD25+ cells, F3 clone with antibody came to 29.9; the expression level of FoxP3 protein in CD4+CD25- cells, F3 clone with antibody amounted to 28.1.

For anti-TGF-beta1 antibody (R&D #MAB246), in the test with TGF-beta, the expression level of FoxP3 protein in CD4+ cells, F3 clone with antibody (FIG. 6) turned out to be 23.4; the expression level of FoxP3 protein in CD4+ cells, F3 clone with antibody (FIG. 7) was found to be 30.6; the expression level of FoxP3 protein in CD4+CD25+ cells, F3 clone with antibody turned out to be 28.9; the expression level of FoxP3 protein in CD4+CD25- cells, F3 clone with antibody came out at 28.4.
